Reference: publication PMC8351524 (2021)

Target: T1, APOC2 (Homo sapiens, UniProt P02655)
T1 chain: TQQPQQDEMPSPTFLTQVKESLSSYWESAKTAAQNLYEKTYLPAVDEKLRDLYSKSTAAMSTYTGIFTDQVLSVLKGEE
Assay: biolayer interferometry

B1: CD36 (protein)
chain: GCDRNCGLIAGAVIGAVLAVFGGILMPVGDLLIQKTIKKQVVLEEGTIAFKNWVKTGTEVYRQFWIFDVQNPQEVMMNSSNIQVKQRGPYTYRVRFLAKENVTQDAEDNTVSFLQPNGAIFEPSLSVGTEADNFTVLNLAVAAASHIYQNQFVQMILNSLINKSKSSMFQVRTLRELLWGYRDPFLSLVPYPVTTTVGLFYPYNNTADGVYKVFNGKDNISKVAIIDTYKGKRNLSYWESHCDMINGTDAASFPPFVEKSQVLQFFSSDICRSIYAVFESDVNLKGIPVYRFVLPSKAFASPVENPDNYCFCTEKIISKNCTSYGVLDISKCKEGRPVYISLPHFLYASPDVSEPIDGLNPNEEEHRTYLDIEPITGFTLQFAKRLQVNLLVKPSEKIQVLKNLKRNYIVPILWLNETGTIGDEKANMFRSQVTGKINLLGLIEMILLSVGVVMFVAFMISYCACRSKTIK
Kd: 128 nM
